Measurements reported in US9205136B2, “Human aminoacyl-tRNA synthetase polypeptides useful for the regulation of angiogenesis” (THE SCRIPPS RESEARCH INSTITUTE, priority 2000, dated 2015).
“Also recorded” adds a separate entry of the source.

How the values were obtained:
[1] = tested on: MPs; assay: MP chemotaxis assay (ChemoTX microchemotaxis chamber); type: cell-based, human; settings: sample proteins 1 nM, 3 hours
Protocol: (§1) Cells for the various cytokine assays described were prepared from acid citrate dextrose-treated blood of normal healthy volunteers. Human PMNs were isolated from the blood by centrifugation (700×g) over Histopaque 1077 and 1119 (Sigma). […] This procedure was repeated twice. Human MPs were isolated by centrifugation on Histopaque 1077 (Sigma). The mononuclear fraction was obtained, washed twice in Hanks' balanced salt solution, resuspended in RPMI-1640 medium (Sigma) containing 10% heat-inactivated fetal bovine serum (Sigma), plated in tissue culture flasks, and incubated in a 6% CO2 incubator at 37° C. for 1-2 hours (Kumagai et al., 1979, J. Immunol. Methods 29:17-25). Nonadherent cells were removed by washing the flasks three times with Hanks' balanced salt solution, and adherent cells were harvested by incubation with calcium-magnesium free phosphate-buffered saline containing 2 mM EDTA for 15 minutes at 4° C., followed by extensive washing.
MP chemotaxis assays were performed in a ChemoTX microchemotaxis chamber (Neuro Probe, Gaithersburg, Md.) containing polycarbonate filters (5 μm pores) with polyvinylpyrrolidone (PVP). MPs were suspended in RPMI-1640 medium containing 1% heat-inactivated fetal bovine serum, and 10^4 cells were added to the upper chamber. Sample proteins (1 nM) were added to the lower compartment of chemotaxis chambers, and the chambers were incubated for 3 hours. After incubation, nonmigrating cells were removed, membranes were fixed in methanol, and migrating cells were visualized with the HEMACOLOR™ stain set (EM Diagnostic Systems, Gibbstown, N.J.). Migrating cells were counted in high-power fields (HPFs). Each determination shown in FIG. 2 represents the average of nine HPF measurements.

[2] = tested on: MPs; assay: MP TNFα production (ELISA of culture supernatant); type: cell-based, human; settings: 1 nM sample protein, 14 hours
Protocol: as §1
MP TNFα production was examined following incubation of 10^5 MPs with 1 nM of sample protein for 14 hours. Aliquots of the culture supernatant were then assayed for TNFα production using a TNFα enzyme-linked immunosorbent assay kit (Sigma). Each determination shown in FIG. 2 represents the mean of four measurements from at least three independent experiments.

[3] = tested on: MPs; assay: MP tissue factor production (Factor VIIa-dependent Factor Xa formation); type: cell-based, human; settings: 1 nM sample protein, 4 hours
Protocol: as §1
MP tissue factor production was examined following incubation of 10^4 MPs with 1 nM of sample protein for 4 hours. Tissue factor activity was then inferred from measurements of Factor VIIa-dependent Factor Xa formation (Wolfson et al., 1990 J. Chromatogr., 503:277-81). Each determination shown in FIG. 2 represents the mean of four measurements from at least three independent experiments.

[4] = tested on: PMNs; assay: PMN release of myeloperoxidase; type: cell-based, human; settings: 1 nM sample protein, 60 minutes
Protocol: as §1
PMN release of myeloperoxidase was examined following incubation of 3×10^6 PMNs per mL with 1 nM of sample protein for 60 minutes. The generation of peroxidase was then measured by the reduction of 3,3′,5,5′-tetramethylbenzidine (Barker et al., 1982, FEBS Lett. 150:419-23). Peroxidase activity is shown in FIG. 3 as the percent of total peroxidase activity where 100% peroxidase activity is defined as the activity observed for 3×10^6 PMNs following exposure to 10 μM phorbol ester for 60 minutes. Each determination shown in FIG. 3 represents the mean of four measurements from at least three independent experiments.

[5] = tested on: PMNs; assay: PMN chemotaxis assay (ChemoTX microchemotaxis chamber); type: cell-based, human; settings: for PMN chemotaxis (PMN migration): sample proteins 1 nM, 45 min
Protocol: as §1
PMN chemotaxis assays were performed in a ChemoTX microchemotaxis chamber (described herein). Sample proteins (1 nM) were added to the lower compartment of chemotaxis chambers, and 10^4 PMNs were added to the upper compartment. Chambers were incubated for 45 min, and migrating cells were counted in HPFs. Each determination shown in FIG. 2 represents the average of nine HPF measurements.

[6] = tested on: PMNs; assay: 125I-human mini TyrRS binding and competition assay on PMNs; settings: 10 nM 125I-mini TyrRS, 200-fold molar excess of unlabeled ligand, on ice 2 hours
Protocol: The interaction of human mini TyrRS and PMNs was examined in binding studies using radioiodinated TyrRS molecules (Moser et al., 1993, J. Biol. Chem. 268:7125-28). Custom radioiodination of mini TyrRS with was performed by Research & Diagnostic Antibody (Richmond, Calif.). In the binding assays, 2×10^6 PMNs were first suspended in 120 μl of RPMI-1640 medium containing 20 mM Hepes (pH 7.4) and 10 mg/ml bovine serum albumin. […] Following incubation, cells were separated from unbound radioactivity by centrifugation at approximately 8000×g for 2 minutes through 500 μL, of a 10% sucrose/phosphate-buffered saline (PBS) cushion. The supernatant was aspirated, and the cell sediment was resuspended using EcoLite (ICN Biomedicals, Irvine, Calif.) and analyzed in a scintillation counter.
Following incubation, cells were separated from unbound radioactivity as described herein.

[7] = tested on: human umbilical vein endothelial cells (HUVECs); assay: HUVEC migration assay (modified Boyden chamber); type: cell-based; settings: 50 nM TyrRS molecule or 0.5 nM VEGF165, 6 hours
Protocol: In contrast, α-chemokines lacking the ELR motif act as angiostatic factors (id.). In order to evaluate the angiogenic activity of TyrRS, which contains the ELR motif, human full-length TyrRS and human mini TyrRS were first examined for their ability to induce endothelial cell migration. Such angiogenic assays were performed using human umbilical vein endothelial cells (HUVECs) (Clonetics, Walkersville, Md.). Cells were maintained in EGM-2® BULLETKIT® medium (Clonetics) in an atmosphere of 6% CO2 at 37° C. according to the supplier's instructions.
Cell migration assays were performed using the modified Boyden chamber (6.5 mm Transwells) with polycarbonate membranes (8.0 μm pore size) (Costar Corp., Cambridge, Mass.) (Masood et al., 1999, Blood 93:1038-44). Wells were coated overnight with 25 μg/mL human fibronectin (Biosource International, Camarillo, Calif.) in PBS and then allowed to air-dry. HUVECs were suspended in Dulbecco's modified Eagle's medium (DMEM) (Gibco-BRL, Gaithersburg, Md.) containing 0.1% BSA (Sigma) and 2×10^5 cells per well were added to the upper chamber. The chemotactic stimulus (50 nM of a given TyrRS molecule or 0.5 nM of human vascular endothelial growth factor-165 (VEGF165) (Biosource International, Camarillo, Calif.)) was placed in the lower chamber, and the cells were allowed to migrate for 6 hours at 37° C. in a 6% CO2 incubator. After incubation, non-migrant cells were removed from the upper face of the Transwell membrane with a cotton swab and migrant cells, those attached to the lower face, were fixed in methanol and visualized with the HEMACOLOR® stain set (EM Diagnostic Systems, Gibbstown, N.J.). Migrating cells were counted in high-power fields (HPFs). HUVECs were suspended in media with the inhibitor for 30 minutes before placement in the chamber. Each determination shown in FIG. 16 represents the average of nine HPF measurements.

B1: E. coli TyrRS: E. coli tyrosyl-tRNA synthetase, similar in size to human mini TyrRS (protein)
chain: MASSNLIKQLQERGLVAQVTDEEALAERLAQGPIALYCGFDPTADSLHLGHLVPLLCLKRFQQAGHKPVALVGGATGLIGDPSFKAAERKLNTEETVQEWVDKIRKQVAPFLDFDCGENSAIAANNYDWFGNMNVLTFLRDIGKHFSVNQMINKEAVKQRLNREDQGISFTEFSYNLLQGYDFACLNKQYGVVLQIGGSDQWGNITSGIDLTRRLHQNQVFGLTVPLITKADGTKFGKTEGGAVWLDPKKTSPYKFYQFWINTADADVYRFLKFFTFMSIEEINALEEEDKNSGKAPRAQYVLAEQVTRLVHGEEGLQAAKRITECLFSGSLSALSEADFEQLAQDGVPMVEMEKGADLMQALVDSELQPSRGQARKTIASNAITINGEKQSDPEYFFKEEDRLFGRFTLLRRGKKNYCLICWK
MP chemotaxis (MP migration) [1]: inactive in all of the assays
MP TNFα production [2]: inactive in all of the assays
MP tissue factor production [3]: inactive in all of the assays
PMN release of myeloperoxidase [4]: inactive in all of the assays
PMN chemotaxis (PMN migration) [5]: inactive in all of the assays; also recorded: no chemotaxis was observed
inhibition of 125I-mini TyrRS binding to PMNs by unlabeled ligand [6]: did not inhibit the binding

B2: TyrRS carboxyl-terminal domain: residues 359-528 of full-length TyrRS (protein)
chain: MPEEVIPSRLDIRVGKIITVEKHPDADSLYVEKIDVGEAEPRTVVSGLVQFVPKEELQDRLVVVLCNLKPQKMRGVESQGMLLCASIEGINRQVEPLDPPAGSAPGEHVFVKGYEKGQPDEELKPKKKVFEKLQADFKISEECIAQWKQTNFMTKLGSISCKSLKGGNISLEHHHHHH
modifications: His6 tag; Human TyrRS carboxyl-terminal domain in pET20B
notes: residues 359-528 of full-length TyrRS
MP chemotaxis (MP migration) [1]: induced MP migration to an extent comparable with that observed for EMAP II
MP TNFα production [2]: stimulated production
MP tissue factor production [3]: stimulated production
PMN release of myeloperoxidase [4]: induced the release of myeloperoxidase in PMNs
concentration dependence of PMN migration [5]: bell-shaped concentration dependence
PMN chemotaxis (PMN migration) [5]: induced PMN migration
inhibition of 125I-mini TyrRS binding to PMNs by unlabeled ligand [6]: neither the TyrRS carboxyl-terminal domain nor EMAP II inhibited

B3: full-length TyrRS: recombinant human tyrosyl-tRNA synthetase, 528 amino acid residues, C-terminal His6 tag (protein)
chain: MGDAPSPEEKLHLITRNLQEVLGEEKLKEILKERELKIYWGTATTGKPHVAYFVPMSKIADFLKAGCEVTILFADLHAYLDNMKAPWELLELRVSYYENVIKAMLESIGVPLEKLKFIKGTDYQLSKEYTLDVYRLSSVVTQHDSKKAGAEVVKQVEHPLLSGLLYPGLQALDEEYLKVDAQFGGIDQRKIFTFAEKYLPALGYSKRVHLMNPMVPGLTGSKMSSSEEESKIDLLDRKEDVKKKLKKAFCEPGNVENNGVLSFIKHVLFPLKSEFVILRDEKWGGNKTYTAYVDLEKDFAAEVVHPGDLKNSVEVALNKLLDPIREKFNTPALKKLASAAYPDPSKQKPMAKGPAKNSEPEEVIPSRLDIRVGKIITVEKHPDADSLYVEKIDVGEAEPRTVVSGLVQFVPKEELQDRLVVVLCNLKPQKMRGVESQGMLLCASIEGINRQVEPLDPPAGSAPGEHVFVKGYEKGQPDEELKPKKKVFEKLQADFKISEECIAQWKQTNFMTKLGSISCKSLKGGNISLEHHHHHH
modifications: C-terminal His6 tag; Human full-length TyrRS in pET20B
notes: recombinant human tyrosyl-tRNA synthetase, 528 amino acid residues, C-terminal His6 tag
MP chemotaxis (MP migration) [1]: no chemotaxis was observed
MP TNFα production [2]: none of the properties observed for the carboxyl-terminal domain
MP tissue factor production [3]: none of the properties observed for the carboxyl-terminal domain
PMN release of myeloperoxidase [4]: none of the properties observed for the carboxyl-terminal domain
PMN chemotaxis (PMN migration) [5]: none of the properties observed for the carboxyl-terminal domain
inhibition of 125I-mini TyrRS binding to PMNs by unlabeled ligand [6]: did not inhibit the binding
HUVEC chemotaxis [7]: no chemotaxis was observed
